The target in this experiment is gastrin-releasing peptide receptor (UniProt P30550 1-384). Description: competition with 125I-GRP.

One may read the IC50 as the concentration needed to halve the response being measured. Read a high IC50 as lower potency.

Where no end group is shown, it is not given here.

Sequence of gastrin-releasing peptide receptor (P30550 whole entry): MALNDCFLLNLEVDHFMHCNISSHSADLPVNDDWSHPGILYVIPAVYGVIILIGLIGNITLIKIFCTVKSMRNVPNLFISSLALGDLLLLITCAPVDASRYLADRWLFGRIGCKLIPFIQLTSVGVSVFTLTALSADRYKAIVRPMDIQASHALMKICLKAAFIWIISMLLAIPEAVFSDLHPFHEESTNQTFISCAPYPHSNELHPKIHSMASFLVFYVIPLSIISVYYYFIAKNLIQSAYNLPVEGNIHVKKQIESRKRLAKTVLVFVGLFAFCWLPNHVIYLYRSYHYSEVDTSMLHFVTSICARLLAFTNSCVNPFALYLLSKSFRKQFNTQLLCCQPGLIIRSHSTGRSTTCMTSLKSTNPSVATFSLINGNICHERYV

B1: gastrin-releasing peptide, unlabeled ligand peptide of the radioligand binding assays (peptide)
peptide: APLQPGGSPALTKIYPRGSHWAVGHLM
modifications: ends and bridges not checked
B1 displayed an IC50 of 0.2 nM.

B2: neuromedin B, unlabeled ligand peptide of the radioligand binding assays (peptide)
peptide: YKIKVNPRGNLWATGHFM
modifications: ends and bridges not checked
As to B2, the IC50 was 151 nM.

The values above are taken from publication PMC6422423 (2019).
